Measurements: patent US20150064751

B1: periplasmically-targeted bovine enterokinase expressed with the DsbA periplasmic signal sequence (protein)
chain: IVGGSDSREGAWPWVVALYFDDQQVCGASLVSRDWLVSAAHCVYGRNMEPSKWKAVLGLHMASNLTSPQIETRLIDQIVINPHYNKRRKNNDIAMMHLEMKVNYTDYIQPICLPEENQVFPPGRICSIAGWGALIYQGSTADVLQEADVPLLSNEKCQQQMPEYNITENMVCAGYEAGGVDSCQGDSGGPLMCQENNRWLLAGVTSFGYQCALPNRPGVYARVPRFTEWIQSFLH
B2: periplasmically-targeted bovine enterokinase expressed with the MalE periplasmic signal sequence (protein)
chain: B1 chain
B3: periplasmically-targeted bovine enterokinase expressed with the OmpA periplasmic signal sequence (protein)
chain: B1 chain

Target: cleavage control protein containing an enterokinase cleavage site (Asp-Asp-Asp-Asp-Lys)

| Protein | cleavage of the 48 kDa control protein into 32 and 16 kDa fragments (SDS-PAGE, Coomassie; periplasmic fraction, 30 C, 24 h) |
| --- | --- |
| B1 | the periplasmically localized enterokinase is active in cleaving the target protein |
| B2 | the periplasmically localized enterokinase is active in cleaving the target protein |
| B3 | the periplasmically localized enterokinase is active in cleaving the target protein |
